What was measured:
[1] = Equilibrium binding of LacNac, intrinsic tryptophan fluorescence; conditions: ligand LacNac; average ± standard deviation of 3 replicated experiments; PBS; read-out: Kd (equilibrium binding constant)
Experimental: (§1) Equilibrium binding data were recorded using a protocol adapted from a previous procedure from Restuccia, et al (38). Intrinsic tryptophan fluorescence was monitored using a Cary Eclipse™ Fluorescence Spectrophotometer (Agilent) operating with Cary Eclipse™ WinFLR software version 1.2 in ‘Scan Mode’. The instrument method parameters were as follows: excitation wavelength was 280 nm, the acquisition range was from 290 nm to 440 nm and the photomultiplier tube sensitivity was set to ‘medium’. Samples were prepared at final concentrations of 1 μM for Gal3C[T243C] or 5 μM Gal3C[T243C]-PEG in 800 ∥L, in PBS for each titration. Samples were pipetted into 0.7×0.7 cm quartz cuvettes with a micro stir bar. Each new experiment was first zeroed against PBS to remove the small background signal from the buffer. […]
The binding affinity and specificity of Gal3C[T243C]-PEG was compared with Gal3C[T243C] and Gal3C (see FIG. 1C, FIG. 9 and FIG. 10) via an inherent tryptophan fluorescence assay optimized to ensure equilibrium binding conditions. Binding of lactose or LacNac quenches the fluorescence of W181, located adjacent to the bound sugar in the crystal structure of Gal3C, thus permitting direct measurement of ligand Kd values. […]

[2] = Equilibrium binding of lactose, intrinsic tryptophan fluorescence; conditions: ligand lactose; average ± standard deviation of 3 replicated experiments; PBS; read-out: Kd (equilibrium binding constant)
Experimental: as §1
The binding affinity and specificity of Gal3C[T243C]-PEG was compared with Gal3C[T243C] and Gal3C (see FIG. 1C, FIG. 9 and FIG. 10) via an inherent tryptophan fluorescence assay optimized to ensure equilibrium binding conditions. Binding of lactose or LacNac quenches the fluorescence of W181, located adjacent to the bound sugar in the crystal structure of Gal3C, thus permitting direct measurement of ligand Kd values.

[3] = Rotational correlation time from 15N T1/T2 NMR relaxation; format: physicochemical; conditions: 30° C.; error is 95% confidence interval
Experimental: NMR data were recorded for temperatures between 30° C. and 55° C., as noted in the main text, with a Broker Avance™ III spectrometer operating at 800 MHz, running Topspin™ version 3.6.3 and equipped with a 5 mm TXI cryoprobe. The temperature was calibrated using a standard sample of 4% methanol in d4-MeOH. 2D [^15N, ^1H]-HSQC spectra were recorded using a gradient sensitivity-enhanced pulse sequence (hsqcetf3gpsi) with 2048 points in the direct dimension, between 180 to 260 points in the indirect dimension and between 32 to 736 scans per experiment, depending on the final sample concentration to achieve similar signal-to-noise ratios for all data. The ^15N T1 and T2 relaxation measurements were acquired with 1D ^15N-edited HSQC-based experiments (hsqct1etf3gpsi3d and hsqct2etf3gpsi3d) with 2048 points and 512 scans per experiment. For T1 measurements, experiments were recorded with relaxation delays of 0.02, 0.05, 0.1, 0.2, 0.3, 0.4, 0.6, 0.8,1, 1.2 or 1.5 s. […]
The rotational correlation times τc of Gal3C[T243C] and Gal3C[T243C]-PEG was then determined from T1 and T2 using the following spectral density function (j(ω)) equations […]
To investigate whether PEG and Gal3C[T243C] behaved more as two independent domains within the conjugated protein or if they interacted more closely, the rotational correlation times (τc) for Gal3C[T243C] and Gal3C[T243C]-PEG at 30° C. were determined. […]

B1: Gal3C[T243C]: Gal3C variant with a single extrinsic cysteine at position 243; SEQ ID NO: 11 (protein)
chain: MAGPLIVPYNLPLPGGVVPRMLITILGTVKPNANRIALDFQRGNDVAFHFNPRFNENNRRVIVCNTKLDNNWGREERQSVFPFESGKPFKIQVLVEPDHFKVAVNDAHLLQYNHRVKKLNEISKLGISGDIDLTSASYCMILEHHHHHH
**Q.** Which results are given for B1?
**A.** Kd [1]: 230 ± 56.5 µM; Kd [2]: 413 ± 102 µM; rotational correlation time (τc) [3]: 10.7 (±0.7) ns
